{"source": "patent US20240158769A1", "about": "(RHEINISCH WESTF LISCHE TECHNISCHE HOCHSCHULE RWTH AACHEN, published 2024)", "proteins": {"B1": {"name": "Phytase chimera PTRec 77 (enzyme)", "chain": "SDTAPAGFQLERVVILSRHGVRAPTKMTQTMRDVTPHQWPEWPVKLGYITPRGEHLISLMGGFYRERFQQQGLLPKDNCPTPDAVYVWADVDQRTRLTGQAFLDGIAPGCGLKVHYQADLEKVDPLFHPVEAGVCQLDSTQTHRAIEAQLGAPLSELSQRYAKPFAQMSEILNFTASPYCKSLQQQGKSCDFATFAANEVKVNQQGTKVSLSGPLALSSTLGEVFLLQEAQGMPQVAWGRITGEKEWRDLLSLHNAQFDLLQRTPYLAKHNGTPLLQTIAHALGSNITSRPLPDISPDNKILFIAGHDTNIANISGMLGMTWTLPGQPDNTPPGGALVFERWVDNAGKPYVSVNMVYQTLAQLHDQAPLTLQHPAGSVRLNIPGCSDQTPDGYCPLSTFSRLVSHSVEPACQLP", "modifications": "N-linked glycans, heterogeneous (hypermannosylation), from secretion by Pichia pastoris; sites not stated", "notes": "Recombinant chimera of phytase fragments from Hafnia alvei, Yersinia mollaretii and Citrobacter braakii; It was secreted by P. pastoris and purified; also called DJ 11"}}, "molecular_target": "the molecule itself", "assay": "size exclusion chromatography against protein standards (peaks at 80 kDa and 50 kDa; data not shown)", "data": [{"protein": "B1", "values": [{"measurement": "binding result", "result": "no binding"}]}]}
